diamino‑ethyl = ethylenediamine linker to Bodipy FL
Experiments:
Assay type in all cases: biochemical
[1] = molecular target: T1, bovine pancreatic α-chymotrypsin (Bos taurus, UniProt P00766); assay: Detection of α-chymotrypsin in 1×PBS buffer using NCDPS, agarose gel electrophoresis; settings: 1×PBS pH 7.8, 300 μM substrate, 1 h reaction
T1 construct: from tissue; host or cells: bovine pancreas (lyophilized enzyme)
Experimental: (§1) In this experiment a 1 mg/ml (650 μM) stock solution of the NCDPS substrate Ac-N-[…]diamino-ethyl-Bodipy FL (SEQ ID NO:29) (MW 1537.4) was prepared by dissolving the peptide in 1× phosphate buffered saline (PBS) at pH 7.8. […] Both proteases were serially diluted in 1 mM HCl in order to obtain the desired concentrations. A solution of 486 μg/ml (316 μM) of the Ac-N-[…]diamino-ethyl-Bodipy FL peptide was prepared in 1×PBS (pH 7.8). Aliquots of 14.4 μl of the […] peptide solution (1×PBS) were mixed with 1 μl aliquots of various concentrations of the proteases or 1 ul of 1 mM HCl for the negative control, and then allowed to react for one hour. 6 μl samples containing 3 μg (300 μM) of the substrate with protease concentrations ranging from 500 nM (lanes 1-2), 100 nM (lanes 3-4), 50 nM (lanes 5-6), 30 nM (lanes 7-8), 20 nM (lanes 9-10) or 0 nM (lanes 11-12) were loaded into the wells of a 4% high resolution agarose gel run in 0.5×TBE. […] Gels were then quantified with a Storm 480 gel scanner using ImageQuant v5.2 (Molecular Dynamics, Sunnyvale, Calif.) (fluorescence mode, high sensitivity, 100 μm pixel size, 1000V photomultiplier tube) with a 450 nm excitation filter and a 520 nm long pass emission filter. […]

[2] = molecular target: T2, bovine pancreatic trypsin (Bos taurus, UniProt P00760); assay: Detection of trypsin in 1×PBS buffer using NCDPS, agarose gel electrophoresis; settings: 1×PBS pH 7.8, 300 μM substrate, 1 h reaction
T2 construct: from tissue; host or cells: bovine pancreas (lyophilized enzyme)
T2 sequence (P00760 24-246): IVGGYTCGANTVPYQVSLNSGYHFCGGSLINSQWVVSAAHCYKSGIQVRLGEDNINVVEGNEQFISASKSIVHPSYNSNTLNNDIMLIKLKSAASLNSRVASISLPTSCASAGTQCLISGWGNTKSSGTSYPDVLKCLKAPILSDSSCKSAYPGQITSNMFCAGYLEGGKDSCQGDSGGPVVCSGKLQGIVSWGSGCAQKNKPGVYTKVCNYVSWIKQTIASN
Experimental: as §1

[3] = molecular target: T1, bovine pancreatic α-chymotrypsin; assay: Detection of α-chymotrypsin in human plasma using NCDPS; settings: un-diluted human plasma, 1 h reaction
Experimental: (§2) In this example a 1 mg/ml (650 μM) stock solution of the peptide substrate was prepared from lyophilized Ac-N-[…]diamino-ethyl-Bodipy FL (MW 1537.4) (SEQ ID NO:29) by dissolving the peptide in 1×PBS at pH 7.8. […] Both proteases were serially diluted in 1 mM HCl in order to obtain the desired concentrations. A solution of 486 μg/ml (316 μM) of the Ac-N-[…]diamino-ethyl-Bodipy FL peptide was prepared in un-diluted human plasma. Aliquots of 14.4 μl of the peptide plasma solution were mixed with 1 μl aliquots of various concentrations of the proteases or 1 ul of 1 mM HCl for the negative control and then allowed to react for one hour. Samples of about 6 μl each containing 3 μg (300 μM) of the substrate with protease concentrations that ranged from 500 nM (lanes 1-2), 100 nM (lanes 3-4), 50 nM (lanes 5-6), 30 nM (lanes 7-8), 20 nM (lanes 9-10) or 0 nM (lanes 11-12) were loaded into the wells of a 4% high resolution agarose gel in 0.5×TBE. […] Gels were then quantified with a Storm 480 gel scanner using ImageQuant v5.2 (Molecular Dynamics, Sunnyvale, Calif.) (fluorescence mode, high sensitivity, 100 μm pixel size, 1000V photomultiplier tube) with a 450 nm excitation filter and a 520 nm long pass emission filter. […]

[4] = molecular target: T2, bovine pancreatic trypsin; assay: Detection of trypsin in human plasma using NCDPS; settings: un-diluted human plasma, 1 h reaction
Experimental: as §2

[5] = system: human pancreatic α-chymotrypsin; assay: Detection of chymotrypsin activity in whole rat blood or 1×PBS using NCDPS substrate; settings: 1×PBS or whole rat blood, 1 h incubation, α-chymotrypsin stocks 2, 0.4, 0.08, 0 mg/ml
Experimental: In this experiment 7 μl of 1× phosphate buffered saline (PBS) at pH 7.8 or 7 μl of whole rat blood were mixed with the following: 7 μl of 1 mg/ml Acetyl-N-[…]Bodipy FL (SEQ ID NO:26) in 1×PBS pH 7.8; 0.4 μl of 2 M CaCl2; and 0.5 μl of the following concentrations 2 mg/ml, 0.4 mg/ml, 0.08 mg/ml and 0 mg/ml of human pancreatic α-chymotrypsin. The mixtures were incubated for 1 hour and then 6 μl of sample was loaded into the wells of a 4% high resolution agarose gel. The five wells on the left-hand side were loaded with 1×PBS samples and the five wells on the right right-hand side were loaded with the whole rat blood samples. Electrophoresis was performed for 30 minutes at 80 V and then the gel was imaged using a BioDoc-It® System with a Model M-26 transilluminator (UVP, Upland, Calif.). The upper FIG. 26A show the gel before the electric field was applied and the quenching of fluorescent signal from NCDPS substrate by the blood samples can clearly be seen in the five wells on the […] side. This sensitivity-reducing quenching issue would occur for many of the current types of fluorescent enzyme assays utilizing classical fluorogenic substrates. As a result, these latter methods typically require considerable sample preparation, which is time-consuming and makes the measurements less accurate, in order to recover fluorescent signal.

Substance	detection level by inspection of gel (FIG. 20) [1]	detection level by inspection of gel (FIG. 20) [2]	detection level by inspection of gel (FIG. 22) [3]	detection level by inspection of gel (FIG. 22) [4]	cleavage products on gel after electrophoresis (FIG. 26B) [5]
Ac-N-Asp-Gly-Asp-Ala-Gly-Tyr-Ala-Gly-Leu-Arg-Gly-Ala-Gly-diamino-ethyl-Bodipy FL (Ac-DGDAGYAGLRGAG-{diamino‑ethyl-Bodipy FL}) [SEQ ID NO:29, NCDPS substrate for chymotrypsin and trypsin, net charge −1]	about 20 nM	about 30 nM	about 20 nM	about 20 nM	–
Acetyl-N-Asp-Gly-Asp-Ala-Gly-Tyr-Ala-Gly-Leu-Arg-Gly-Ala-Gly-Bodipy FL (Ac-DGDAGYAGLRGAG-{Bodipy FL})	–	–	–	–	appearance of cleavage products in the first three 1×PBS samples and in the blood samples

— patent publication US9222119B2, “Detection of degradative enzymes and biomolecules in bodily fluids” (The Regents of the University of California, priority 2008, dated 2015)
